# From patent US20090098142A1 (published 2009)
# T1: cynomolgus monkey IL-13 (NHP IL-13) (cynomolgus monkey, UniProt Q5I6E4 21-132 (Macaca thibetana entry))
# T1 chain: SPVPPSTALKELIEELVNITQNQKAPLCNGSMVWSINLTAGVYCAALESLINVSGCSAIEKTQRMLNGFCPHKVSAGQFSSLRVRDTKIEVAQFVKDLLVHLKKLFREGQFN
# T2: FLAG-tagged NHP IL-13 (cynomolgus monkey, UniProt Q5I6E4 21-132 (Macaca thibetana entry))
# T2 construct: also called NHP IL-13-FLAG; FLAG NHP IL-13; not shown: FLAG tag
# T2 chain: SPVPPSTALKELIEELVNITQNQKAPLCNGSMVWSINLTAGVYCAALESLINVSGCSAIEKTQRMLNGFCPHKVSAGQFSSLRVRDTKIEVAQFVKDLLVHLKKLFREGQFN
# B1: mouse monoclonal antibody MJ 2-7 (antibody, mouse IgG1, V domains shown)
# VH: EVQLQQSGAELVKPGASVKLSCTGSGFNIKDTYIHWVKQRPEQGLEWIGRIDPANDNIKYDPKFQGKATITADTSSNTAYLQLNSLTSEDTAVYYCARSEENWYDFFDYWGQGTTLTVSS
# VL: DVLMTQTPLSLPVSLGDQASISCRSSQSIVHSNGNTYLEWYLQKPGQSPKLLIYKVSNRFSGVPDRFSGSGSGTDFTLKISRVEAEDLGVYYCFQGSHIPYTFGGGTKLEIK
# notes: also called mAb7.1.1; murine MJ2-7
# B2: mouse monoclonal antibody C65 (antibody, V domains shown)
# VH: QVQLKESGPGLVAPSQSLSITCTVSGFSLTGYGVNWVRQPPGKGLEWLGIIWGDGSTDYNSALKSRLIINKDNSKSQVFLKMNSLQTDDTARYFCARDKTFYYDGFYRGRMDYWGQGTSVTVSS
# VL: DVQMIQSPSSLSASLGDIVTMTCQASQGTSINLNWFQQKPGKAPKLLIFGASNLEDGVPSRFSGSRYGTNFTLTISSLEDEDMATYFCLQHSYLPWTFGGGTKLEIK
# B3: sIL-13Rα2-Fc (soluble human IL-13 receptor alpha2 with a human IgG1 Fc tail) (Fc fusion, UniProt Q14627 27-343, looked up, not shown: a dimerising Fc or GST)
# chain: DTEIKVNPPQDFEIVDPGYLGYLYLQWQPPLSLDHFKECTVEYELKYRNIGSETWKTIITKNLHYKDGFDLNKGIEAKIHTLLPWQCTNGSEVQSSWAETTYWISPQGIPETKVQDMDCVYYNWQYLLCSWKPGIGVLLDTNYNLFYWYEGLDHALQCVDYIKADGQNIGCRFPYLEASDYKDFYICVNGSSENKPIRSSYFTFQLQNIVKPLPPVYLTFTRESSCEIKLKWSIPLGPIPARCFDYEIEIREDDTTLVTATVENETYTLKTTNETRQLCFVVRSKVNIYCSDDGIWSEWSDKQCWEGEDLSKKTLLR
# B4: humanized MJ 2-7 V2.4 (VH V2.4 / VL V2) (antibody, V domains shown)
# VH: EVQLVESGGGLVQPGGSLRLSCAASGFNIKDTYIHWVRQAPGKGLEWVGRIDPANDNIKYDPKFQGRFTISRDNAKNSLYLQMNSLRAEDTAVYYCARSEENWYDFFDYWGQGTLVTVSS
# VL: DIQMTQSPSSLSASVGDRVTITCRSSQSIVHSNGNTYLEWYQQKPGKAPKLLIYKVSNRFSGVPSRFSGSGSGTDFTLTISSLQPEDFATYYCFQGSHIPYTFGGGTKVEIKR
# B5: humanized MJ 2-7 V2.5 (VH V2.5 / VL V2) (antibody, V domains shown)
# VH: EVQLVESGGGLVQPGGSLRLSCAASGFNIKDTYIHWVRQAPGKGLEWVARIDPANDNIKYDPKFQGKATISADNAKNSLYLQMNSLRAEDTAVYYCARSEENWYDFFDYWGQGTLVTVSS
# VL: DIQMTQSPSSLSASVGDRVTITCRSSQSIVHSNGNTYLEWYQQKPGKAPKLLIYKVSNRFSGVPSRFSGSGSGTDFTLTISSLQPEDFATYYCFQGSHIPYTFGGGTKVEIKR
# B6: humanized MJ 2-7 V2.11 IgG1 with a mutated CH2 domain (antibody, V domains shown)
# VH: EVQLVESGGGLVQPGGSLRLSCAASGFNIKDTYIHWVRQAPGKGLEWIGRIDPANDNIKYDPKFQGRFTISADNAKNSAYLQMNSLRAEDTAVYYCARSEENWYDFFDYWGQGTLVTVSS
# VL: DIQMTQSPSSLSASVGDRVTITCRSSQSIVHSNGNTYLEWYQQKPGKAPKLLIYKVSNRFSGVPSRFSGSGSGTDFTLTISSLQPEDFATYYCFQGSHIPYTFGGGTKVEIKR
# notes: VH V2.11 (back mutations V48I); A49G; R72A; L79A; human IgG1 with mutated CH2 and human kappa; also called hMJ2-7 V2-11; huMJ 2-7 V2.11
# B7: humanized MJ 2-7 V2.2 (VH V2.2 / VL V2) (antibody, V domains shown)
# VH: EVQLVESGGGLVQPGGSLRLSCAASGFNIKDTYIHWVRQAPGKGLEWVARIDPANDNIKYDPKFQGKATISRDNAKNSLYLQMNSLRAEDTAVYYCARSEENWYDFFDYWGQGTLVTVSS
# VL: DIQMTQSPSSLSASVGDRVTITCRSSQSIVHSNGNTYLEWYQQKPGKAPKLLIYKVSNRFSGVPSRFSGSGSGTDFTLTISSLQPEDFATYYCFQGSHIPYTFGGGTKVEIKR
# B8: humanized MJ 2-7 V2.1 (VH V2.1 / VL V2) (antibody, V domains shown)
# VH: EVQLVESGGGLVQPGGSLRLSCAASGFNIKDTYIHWVRQAPGKGLEWIGRIDPANDNIKYDPKFQGRFTISRDNAKNSLYLQMNSLRAEDTAVYYCARSEENWYDFFDYWGQGTLVTVSS
# VL: DIQMTQSPSSLSASVGDRVTITCRSSQSIVHSNGNTYLEWYQQKPGKAPKLLIYKVSNRFSGVPSRFSGSGSGTDFTLTISSLQPEDFATYYCFQGSHIPYTFGGGTKVEIKR
# B9: humanized MJ 2-7 V2.7 (VH V2.7 / VL V2) (antibody, V domains shown)
# VH: EVQLVESGGGLVQPGGSLRLSCAASGFNIKDTYIHWVRQAPGKGLEWVGRIDPANDNIKYDPKFQGRFTISADNAKNSLYLQMNSLRAEDTAVYYCARSEENWYDFFDYWGQGTLVTVSS
# VL: DIQMTQSPSSLSASVGDRVTITCRSSQSIVHSNGNTYLEWYQQKPGKAPKLLIYKVSNRFSGVPSRFSGSGSGTDFTLTISSLQPEDFATYYCFQGSHIPYTFGGGTKVEIKR
# B10: humanized MJ 2-7 V2 (CDR grafted; VH V2 / VL V2) (antibody, human IgG1, V domains shown)
# VH: EVQLVESGGGLVQPGGSLRLSCAASGFNIKDTYIHWVRQAPGKGLEWVARIDPANDNIKYDPKFQGRFTISRDNAKNSLYLQMNSLRAEDTAVYYCARSEENWYDFFDYWGQGTLVTVSS
# VL: DIQMTQSPSSLSASVGDRVTITCRSSQSIVHSNGNTYLEWYQQKPGKAPKLLIYKVSNRFSGVPSRFSGSGSGTDFTLTISSLQPEDFATYYCFQGSHIPYTFGGGTKVEIKR
# notes: Expressed in COS cells with human IgG1 (IgG1mut) and human kappa constant regions; also called hMJ2-7 V2; huMJ 2-7 V2
# B11: monoclonal antibody 13.2 (mAb13.2) (antibody, mouse IgG1, V domains shown)
# VH: EVKLVESGGGLVKPGGSLKLSCAASGFTFISYAMSWVRQTPEKRLEWVASISSGGNTYYPDSVKGRFTISRDNARNILYLQMSSLRSEDTAMYYCARLDGYYFGFAYWGQGTTVTVSS
# VL: DIVLTQSPASLAVSLGQRATISCKASESVDNYGKSLMHWYQQKPGQSPKLLIYRASNLESGIPARFSGSGSRTDFTLTINPVEADDVATYYCQQSNEDPWTFGGGTKLEIK
# How the values were obtained:
# [1] = biological target: T1, cynomolgus monkey IL-13 (NHP IL-13); test: cell-based or functional assay
# native human IL-13 [2] = biological target: T3, native human IL-13 (human, UniProt P35225 34-146); test: cell-based or functional assay
# [3] = biological target: T4, NHP-IL-13 in a complex with immobilized sIL-13Rα2-Fc (cynomolgus monkey; human, UniProt Q14627 27-343, limits assumed); test: SPR (BIACORE), sIL-13Rα2-Fc amine-coupled to a CM5 chip, NHP-IL-13 injected, then antibody
# T4 construct: not shown: human IgG1 Fc tail
# Procedure: sIL-13Rα2-Fc was directly coated onto a CM5 chip by standard amine coupling. NHP-IL-13 at 100 nM concentration was injected, and its binding to the immobilized IL-13Rα2-Fc was detected by BIACORE™. An additional injection of 100 nM of anti IL-13 antibodies was added, and changes in binding were monitored.
# native human IL-13 [4] = biological target: T3, native human IL-13; test: cell-based or functional assay; remark: listed apart in the source
# [5] = biological target: T1, cynomolgus monkey IL-13 (NHP IL-13); test: SPR (BIACORE), antibody captured on goat anti-human IgG Fc, NHP-IL-13 at 0.09-600 nM injected, 1:1 model, 22.5 C
# Procedure: (§1) For kinetic analysis, the monoclonal antibody hMJ2-7 V2-11 was captured onto the anti IgG antibody surface by injecting 40 μl of a 1 μg/ml solution. The net difference between the baseline and the point approximately 30 seconds after completion of injection was taken to represent the amount of target bound. Solutions of NHP-IL-13 at 600, 200, 66.6, 22.2, 7.4, 2.5, 0.8, 0.27, 0.09 and 0 nM concentrations were injected in triplicate at a flow rate of […] for 2 minutes, and the amount of bound material as a function of time was recorded (FIG. 8). The dissociation phase was monitored in HBS/EP buffer (10 mM HEPES, pH 7.4, containing 150 mM NaCl, 3 mM EDTA and 0.005% (v/v) Surfactant P20) for 5 minutes at the same flow rate followed by two 5 μl injections of glycine, pH 1.5, to regenerate a fully active capturing surface. All kinetic experiments were done at 22.5° C. in HBS/EP buffer. Blank and buffer effects were subtracted for each sensorgram using double referencing.
# [6] = biological target: T1, cynomolgus monkey IL-13 (NHP IL-13); test: SPR (BIACORE), Kd=kd/ka from the kinetic rate constants
# Procedure: as §1
# FLAG-tagged NHP IL-13 = biological target: T2, FLAG-tagged NHP IL-13; test: competition ELISA against biotinylated mouse MJ 2-7
# Procedure: The ability of fully humanized MJ 2-7 mAb (V1, V2 v2) to compete with biotinylated mouse MJ 2-7 Ab for binding to NHP IL-13-FLAG was evaluated by ELISA. The microtiter plates (Costar) were coated with 1 μg/ml of anti-FLAG monoclonal antibody M2 (Sigma). The FLAG NHP IL-13 protein at concentration of 10 ng/ml was mixed with 10 ng/ml of biotin labeled mouse MJ 2-7 antibody and various concentrations of unlabeled mouse and humanized MJ 2-7 antibody. The mixture was incubated for 2 hours at room temperature and then added to the anti-FLAG antibody-coated plate. Binding of FLAG NHP-IL-13/bioMJ2-7 Ab complexes was detected with streptavidin-HRP and 3,3′,5,5′-tetramethylbenzidine (TMB). […] BIACORE™ analysis also confirmed that NHP IL-13 had rapid binding to and slow dissociation to immobilized h1uMJ 2-7 v2.11.
# [7] = biological target: T1, cynomolgus monkey IL-13 (NHP IL-13); test: sandwich ELISA, capture antibody
# Source text: FIG. 20 is a series of bar graphs depicting the increases in serum IL-13 levels in individual cynomolgus monkeys treated with humanized MJ2-7 (hMJ2-7v2-11). The label in each panel (e.g., 120-452) corresponds to the monkey identification number. The “pre” sample was collected prior to administration of the antibody. The time “0” was collected 24-hours post-antibody administration, but prior to Ascaris challenge. The remaining time points were post-Ascaris challenge. The assays used to detect IL-13 levels are able to detect IL-13 in the presence of hMJ2-7v2-11 or hmAb13.2v2 antibodies. More specifically, ELISA plates (MaxiSorp; Nunc, Rochester, N.Y.), were coated overnight at 4° C. with 0.5 ug/ml mAb13.2 in PBS. Plates were washed in PBS containing 0.05% Tween-20 (PBS-Tween). NHP IL-13 standards, or serum dilutions from cynomolgus monkeys, were added and incubated for 2 hours at room temperature. Plates were washed, and 0.3 ug/ml biotinylated MJ1-64 (referred to herein as C65 antibody) was added in PBS-Tween. Plates were incubated 2 hours, room temperature, washed, and binding detected using HRP-streptavidin (Southern Biotechnology Associates) and Sure Blue substrate (Kirkegaard and Perry Labs). For detection of IL-13 in the presence of mAb13.2, the same protocol was followed, excepts that ELISA plates were coated with 0.5 ug/ml MJ2-7.
# T3 sequence (P35225 other isoform, or with tags, fused parts or gaps): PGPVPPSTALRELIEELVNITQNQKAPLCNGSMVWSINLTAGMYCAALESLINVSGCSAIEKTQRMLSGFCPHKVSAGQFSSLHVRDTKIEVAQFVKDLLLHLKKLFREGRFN
binder,measurement,setting,value
B1,"CD23 expression assay, non-human primate IL-13 at 1 ng/ml, IC50",[1],~0.242 nM
same,"STAT6 phosphorylation assay in HT-29 cells, 0.3 ng/ml native human IL-13, IC50",native human IL-13 [2],0.48 nM
same,"STAT6 phosphorylation assay, native human IL-13 at 1 ng/ml, IC50",native human IL-13 [2],~0.293 nM
same,"tenascin production assay in BEAS-2B cells, 3 ng/ml native human IL-13, IC50",native human IL-13 [2],~0.1 nM
same,binding result,[3],no binding (tested: 100 nM)
B2,"fold decrease in monocyte CD23 expression assay, 3 ng/ml NHP IL-13; activity against that of MJ2-7 and sIL-13Rα2-Fc",[1],~20 fold
same,"fold decrease in STAT6 phosphorylation assay in HT-29 cells, 0.3 ng/ml native human IL-13; activity against that of MJ2-7",native human IL-13 [2],~20 fold
B3,"STAT6 phosphorylation assay in HT-29 cells, 0.3 ng/ml native human IL-13, IC50",native human IL-13 [2],0.33 nM
B4,"Native hIL-13 STAT6 assay IC 50, nM",native human IL-13 [4],17.5 nM
B5,"Native hIL-13 STAT6 assay IC 50, nM",native human IL-13 [4],1.75 nM
B6,koff,[5],0.000889 s⁻¹
same,kon,[5],2.05e+07 M⁻¹ s⁻¹
same,"STAT6 phosphorylation assay in HT-29 cells, 0.3 ng/ml native human IL-13, IC50",native human IL-13 [2],0.52 nM
same,Kd,[6],0.043 nM
B7,"Native hIL-13 STAT6 assay IC 50, nM",native human IL-13 [4],> 100 nM
B8,"Native hIL-13 STAT6 assay IC 50, nM",native human IL-13 [4],2.8 nM
B9,"Native hIL-13 STAT6 assay IC 50, nM",native human IL-13 [4],1.7 nM
B10,"Native hIL-13 STAT6 assay IC 50, nM",native human IL-13 [4],> 100 nM
same,binding result,FLAG-tagged NHP IL-13,binds
B11,binding result,[7],binds
